These are literature values, as cited in article PMC3309041.

pKd: −log10 of the molar value.

The target of this data set is IL-8 (monomeric) (Homo sapiens) (UniProt P10145). The conditions noted are these: cited from earlier work.
Sequence of IL-8 (monomeric) (Homo sapiens) (P10145 28-99): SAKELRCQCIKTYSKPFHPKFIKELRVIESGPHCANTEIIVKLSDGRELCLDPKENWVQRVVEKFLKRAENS

Sequence of CXCR1 N-terminal peptide N-terminus (P21109 11-44): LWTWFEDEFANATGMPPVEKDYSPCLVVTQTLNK

What is called pKd is the negative decadic logarithm of the Kd, by convention in mol/L. For “CXCR1 N-terminal peptide N-terminus (from UniProt P21109)”, the negative logarithm of the Kd (pKd) is 5.07.
